In PMC11261597, “Three-Step Enzymatic Remodeling of Chitin into Bioactive Chitooligomers” (Journal of Agricultural and Food Chemistry, 2024):

System: T1, CC(=O)N[C@H]1[C@H](Oc2ccc([N+](=O)[O-])cc2)O[C@H](CO)[C@@H](O[C@@H]2O[C@H](CO)[C@@H](O[C@@H]3O[C@H](CO)[C@@H](O)[C@H](O)[C@H]3NC(C)=O)[C@H](O)[C@H]2NC(C)=O)[C@@H]1O
T1 construct: synthetic gene, codon-optimised, pPICZαA (EcoRI/KpnI), secreted from Pichia pastoris KM71H, purified by Q-Sepharose
Experiment: purified protein
Format: biochemical, Talaromyces flavus
Details: 50 mM citrate/phosphate pH 5.0, 25 °C, 0.1–6 mM substrate

Sequence of TfChit (Talaromyces flavus; D136V/S181W) (chain, as listed by the source D136V S181W): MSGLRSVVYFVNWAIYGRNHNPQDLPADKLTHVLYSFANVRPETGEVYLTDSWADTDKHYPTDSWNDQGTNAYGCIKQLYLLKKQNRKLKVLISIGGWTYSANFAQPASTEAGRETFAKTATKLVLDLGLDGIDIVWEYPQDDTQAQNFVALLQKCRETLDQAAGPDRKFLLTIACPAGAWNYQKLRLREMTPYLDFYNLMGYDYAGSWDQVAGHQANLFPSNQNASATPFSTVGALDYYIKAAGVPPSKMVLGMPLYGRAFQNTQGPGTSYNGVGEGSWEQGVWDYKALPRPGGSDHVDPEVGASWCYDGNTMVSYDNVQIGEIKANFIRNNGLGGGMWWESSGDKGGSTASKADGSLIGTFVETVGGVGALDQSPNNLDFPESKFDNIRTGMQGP
Sequence of TfChit (Talaromyces flavus; S181W) (chain, as listed by the source S181W): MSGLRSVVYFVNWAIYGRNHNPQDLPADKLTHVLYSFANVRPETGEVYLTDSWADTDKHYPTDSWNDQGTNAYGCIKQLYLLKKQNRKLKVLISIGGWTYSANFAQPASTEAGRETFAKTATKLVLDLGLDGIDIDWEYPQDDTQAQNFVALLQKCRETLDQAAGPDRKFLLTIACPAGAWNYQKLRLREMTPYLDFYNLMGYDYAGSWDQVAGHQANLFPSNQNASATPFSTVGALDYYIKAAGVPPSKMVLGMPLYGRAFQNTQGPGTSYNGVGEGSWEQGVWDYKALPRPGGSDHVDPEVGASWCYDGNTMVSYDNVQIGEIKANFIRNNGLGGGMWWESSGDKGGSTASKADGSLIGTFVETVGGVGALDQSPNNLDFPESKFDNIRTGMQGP
Sequence of TfChit (Talaromyces flavus) (chain, as listed by the source): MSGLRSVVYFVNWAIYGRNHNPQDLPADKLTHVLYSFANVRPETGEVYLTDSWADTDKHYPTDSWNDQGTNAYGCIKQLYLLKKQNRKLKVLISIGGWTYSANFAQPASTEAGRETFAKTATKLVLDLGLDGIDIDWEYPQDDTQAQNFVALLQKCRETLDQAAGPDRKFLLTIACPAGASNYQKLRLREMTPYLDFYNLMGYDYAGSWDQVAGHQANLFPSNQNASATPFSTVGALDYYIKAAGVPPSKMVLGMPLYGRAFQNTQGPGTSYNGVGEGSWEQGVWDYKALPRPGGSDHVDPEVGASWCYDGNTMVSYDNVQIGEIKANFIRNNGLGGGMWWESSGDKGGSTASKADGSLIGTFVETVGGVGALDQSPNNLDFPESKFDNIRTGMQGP
Sequence of TfChit (Talaromyces flavus; F231W) (chain, as listed by the source F231W): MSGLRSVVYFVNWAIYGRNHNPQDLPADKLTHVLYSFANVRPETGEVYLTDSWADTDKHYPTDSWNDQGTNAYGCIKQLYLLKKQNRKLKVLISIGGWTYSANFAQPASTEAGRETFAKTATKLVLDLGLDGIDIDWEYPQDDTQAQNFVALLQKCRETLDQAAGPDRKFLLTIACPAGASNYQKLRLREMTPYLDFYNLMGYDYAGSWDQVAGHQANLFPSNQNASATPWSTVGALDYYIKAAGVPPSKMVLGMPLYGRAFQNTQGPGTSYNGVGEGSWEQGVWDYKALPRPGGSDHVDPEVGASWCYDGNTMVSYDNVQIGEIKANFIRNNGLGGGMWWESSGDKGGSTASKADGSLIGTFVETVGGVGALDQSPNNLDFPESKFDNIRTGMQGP
Sequence of TfChit (Talaromyces flavus; D136V/S181W/W209A) (chain, as listed by the source D136V S181W W209A): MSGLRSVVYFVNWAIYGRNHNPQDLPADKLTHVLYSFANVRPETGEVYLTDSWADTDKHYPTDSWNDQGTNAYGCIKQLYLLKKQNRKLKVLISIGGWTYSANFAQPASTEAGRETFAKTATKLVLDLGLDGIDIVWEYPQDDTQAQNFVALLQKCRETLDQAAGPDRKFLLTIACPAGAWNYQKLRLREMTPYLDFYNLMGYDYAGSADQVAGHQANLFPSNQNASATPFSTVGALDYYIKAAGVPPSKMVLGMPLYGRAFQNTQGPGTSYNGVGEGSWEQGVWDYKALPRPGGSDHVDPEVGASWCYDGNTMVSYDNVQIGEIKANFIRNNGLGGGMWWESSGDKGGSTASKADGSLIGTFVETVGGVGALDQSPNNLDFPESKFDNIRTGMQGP
Sequence of TfChit (Talaromyces flavus; W209A) (chain, as listed by the source W209A): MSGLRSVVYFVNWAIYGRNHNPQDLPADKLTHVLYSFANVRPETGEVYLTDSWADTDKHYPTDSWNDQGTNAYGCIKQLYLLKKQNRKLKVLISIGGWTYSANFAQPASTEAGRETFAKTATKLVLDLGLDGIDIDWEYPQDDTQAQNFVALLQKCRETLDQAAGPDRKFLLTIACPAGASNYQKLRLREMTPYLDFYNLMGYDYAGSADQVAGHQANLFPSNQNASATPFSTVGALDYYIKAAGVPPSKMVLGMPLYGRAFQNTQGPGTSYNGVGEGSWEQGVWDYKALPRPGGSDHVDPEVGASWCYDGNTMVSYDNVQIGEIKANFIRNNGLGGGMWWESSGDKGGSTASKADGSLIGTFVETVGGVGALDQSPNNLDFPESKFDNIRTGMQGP
Sequence of TfChit (Talaromyces flavus; D136V) (chain, as listed by the source D136V): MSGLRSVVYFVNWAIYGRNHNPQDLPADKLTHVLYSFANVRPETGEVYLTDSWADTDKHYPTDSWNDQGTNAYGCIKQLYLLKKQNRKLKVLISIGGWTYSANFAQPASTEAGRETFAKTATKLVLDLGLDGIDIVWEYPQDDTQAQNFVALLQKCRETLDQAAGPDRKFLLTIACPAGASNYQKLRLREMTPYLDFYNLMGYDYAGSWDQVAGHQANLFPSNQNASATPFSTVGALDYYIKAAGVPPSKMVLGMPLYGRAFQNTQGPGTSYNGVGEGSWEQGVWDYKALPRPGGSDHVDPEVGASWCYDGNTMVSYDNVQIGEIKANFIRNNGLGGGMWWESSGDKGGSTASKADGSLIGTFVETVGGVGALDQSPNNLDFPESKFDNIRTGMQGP
Sequence of TfChit (Talaromyces flavus; F231W/W209A) (chain, as listed by the source F231W W209A): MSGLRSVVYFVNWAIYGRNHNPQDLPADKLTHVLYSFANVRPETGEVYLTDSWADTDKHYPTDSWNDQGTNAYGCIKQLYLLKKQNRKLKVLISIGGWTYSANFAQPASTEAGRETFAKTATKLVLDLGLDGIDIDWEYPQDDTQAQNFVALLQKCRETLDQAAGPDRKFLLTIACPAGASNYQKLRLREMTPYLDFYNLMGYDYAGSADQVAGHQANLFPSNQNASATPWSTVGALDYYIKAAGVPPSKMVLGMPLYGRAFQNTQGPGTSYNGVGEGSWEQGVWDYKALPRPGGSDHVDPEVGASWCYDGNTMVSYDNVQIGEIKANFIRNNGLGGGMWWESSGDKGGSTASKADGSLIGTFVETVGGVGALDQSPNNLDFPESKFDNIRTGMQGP
Sequence of TfChit (Talaromyces flavus; S181W/W209A) (chain, as listed by the source S181W W209A): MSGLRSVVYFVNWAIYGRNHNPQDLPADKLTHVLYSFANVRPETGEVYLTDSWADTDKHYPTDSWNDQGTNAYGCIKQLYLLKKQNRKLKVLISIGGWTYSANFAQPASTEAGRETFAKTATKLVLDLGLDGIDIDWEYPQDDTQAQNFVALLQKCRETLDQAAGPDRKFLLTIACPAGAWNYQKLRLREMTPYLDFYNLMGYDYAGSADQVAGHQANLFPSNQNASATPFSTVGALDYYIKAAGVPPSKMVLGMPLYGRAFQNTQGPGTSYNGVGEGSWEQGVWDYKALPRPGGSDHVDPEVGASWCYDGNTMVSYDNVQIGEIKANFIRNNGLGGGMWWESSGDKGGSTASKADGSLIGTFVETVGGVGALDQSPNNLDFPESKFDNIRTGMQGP
Sequence of TfChit (Talaromyces flavus; D136V/W209A) (chain, as listed by the source D136V W209A): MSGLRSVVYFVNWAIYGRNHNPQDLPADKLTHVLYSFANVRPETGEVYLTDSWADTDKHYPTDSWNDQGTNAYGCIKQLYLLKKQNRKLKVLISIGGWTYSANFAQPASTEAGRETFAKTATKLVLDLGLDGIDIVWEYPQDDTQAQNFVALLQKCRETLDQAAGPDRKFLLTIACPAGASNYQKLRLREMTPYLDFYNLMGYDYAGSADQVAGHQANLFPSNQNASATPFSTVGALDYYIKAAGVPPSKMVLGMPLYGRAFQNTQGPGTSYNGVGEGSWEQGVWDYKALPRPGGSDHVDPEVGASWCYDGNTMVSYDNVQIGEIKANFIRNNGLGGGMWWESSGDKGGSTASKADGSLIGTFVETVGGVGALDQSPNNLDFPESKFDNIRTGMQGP

Substance	Km [mmol·L^–1]	kcat [s⁻¹]	kcat/Km [M⁻¹ s⁻¹]
TfChit (Talaromyces flavus)	1.2	3.9	3300
TfChit (Talaromyces flavus; D136V)	1.1	5.3	5000
TfChit (Talaromyces flavus; D136V/S181W)	4.3	5.3	1200
TfChit (Talaromyces flavus; D136V/S181W/W209A)	2.0	5.6	2800
TfChit (Talaromyces flavus; D136V/W209A)	3.6	8.2	2200
TfChit (Talaromyces flavus; F231W)	1.1	1.9	1800
TfChit (Talaromyces flavus; F231W/W209A)	1.3	4.7	3500
TfChit (Talaromyces flavus; S181W)	1.5	6	4000
TfChit (Talaromyces flavus; S181W/W209A)	2.6	3.1	1200
TfChit (Talaromyces flavus; W209A)	3.3	6.1	1900
